In patent US20210246166A1 (Bayer, published 2021):
Numbered stars: 1 amine (or outer) side, 2 acyl side, 3 side chain; on linkers, the order of the positions; unused ones are H or OH. Bridge positions count the residues as written; N and C are the ends. Square brackets hold non-standard residues; d marks the D form. Ends that are not written are not given here. (S)‑4‑Piperazine‑2‑carboxylic acid = (S)-4-piperazine-2-carboxylic acid; X11 = (S)‑Piperidine‑3‑carboxylic acid, O=C([C@H]1CCCN([*:1])C1)[*:2]; Nip(3R) = O=C([C@@H]1CCCN([*:1])C1)[*:2]; Oic = O=C(O)[C@@H]1C[C@@H]2CCCC[C@@H]2N1; PEG6 = NCCOCCOCCOCCOCCOCCOCCC(=O)O; Pen = CC(C)(S)[C@H](N)C(=O)O; PEG3 = NCCOCCOCCOCCC(=O)O; Orn = NCCC[C@H](N)C(=O)O; Ahx = NCCCCCC(=O)O; Sar = CNCC(=O)O

T1: Recombinant human MASP1 enzyme (fragment corresponding to amino acids 297-699, C-terminal His Tag) (human, UniProt P48740 297-699)
T1 sequence: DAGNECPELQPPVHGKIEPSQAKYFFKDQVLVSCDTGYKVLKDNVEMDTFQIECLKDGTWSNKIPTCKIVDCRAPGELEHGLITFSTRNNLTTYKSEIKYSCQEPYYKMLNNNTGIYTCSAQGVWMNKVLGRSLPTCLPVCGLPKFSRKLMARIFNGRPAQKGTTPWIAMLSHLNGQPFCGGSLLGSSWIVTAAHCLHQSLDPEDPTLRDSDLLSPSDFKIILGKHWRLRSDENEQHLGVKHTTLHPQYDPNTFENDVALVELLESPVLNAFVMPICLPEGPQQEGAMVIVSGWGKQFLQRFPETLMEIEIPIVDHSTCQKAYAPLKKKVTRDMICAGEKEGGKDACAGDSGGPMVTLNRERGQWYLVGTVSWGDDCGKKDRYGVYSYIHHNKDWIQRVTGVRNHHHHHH


Key:
[1] = target: T1, Recombinant human MASP1 enzyme …; assay: cell-based or functional assay
[2] = target: Recombinant human MASP2 enzyme (fragment corresponding to amino acids 297-686, C-terminal His Tag) (human, UniProt O00187 297-686); assay: cell-based or functional assay
Sequence of Recombinant human MASP2 enzyme (fragment corresponding to amino acids 297-686, C-terminal His Tag) (O00187 other isoform, or with tags, fused parts or gaps limits assumed): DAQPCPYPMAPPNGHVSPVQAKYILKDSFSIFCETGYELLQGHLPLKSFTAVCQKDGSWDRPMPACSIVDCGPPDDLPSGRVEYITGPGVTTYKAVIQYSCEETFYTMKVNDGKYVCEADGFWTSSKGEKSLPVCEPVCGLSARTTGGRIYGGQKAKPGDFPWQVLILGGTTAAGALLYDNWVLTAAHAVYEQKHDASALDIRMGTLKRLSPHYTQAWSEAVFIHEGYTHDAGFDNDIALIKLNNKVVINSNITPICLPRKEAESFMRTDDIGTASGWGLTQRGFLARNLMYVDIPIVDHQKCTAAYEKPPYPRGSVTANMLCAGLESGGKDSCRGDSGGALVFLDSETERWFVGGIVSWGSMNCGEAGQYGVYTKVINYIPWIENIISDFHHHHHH

Binder	human MASP1 IC50 [1] [nM]	human MASP2 IC50 [2] [nM]
[X11]ICSRSLP[Oic]I[Pen]I-OH (disulfide 3-11; N-terminus assumed; SMILES CC[C@H](C)[C@H](NC(=O)[C@H]1NC(=O)[C@H]([C@@H](C)CC)NC(=O)[C@@H]2C[C@@H]3CCCC[C@@H]3N2C(=O)[C@@H]2CCCN2C(=O)[C@H](CC(C)C)NC(=O)[C@H](CO)NC(=O)[C@H](CCCNC(=N)N)NC(=O)[C@H](CO)NC(=O)[C@@H](NC(=O)[C@@H](NC(=O)[C@H]2CCCNC2)[C@@H](C)CC)CSSC1(C)C)C(=O)O) [((S)-Piperidine-3-carboxylic acid)-IC+SRSLP-(Oic)-I-(Pen)+I-OH]	8.2	140
[Sar]ICSRSLP[Oic]I[Pen]IPX-OH (disulfide 3-11; not fully specified (residue 14); printed as ((N-Me)G)-IC+SRSLP-(Oic)-I-(Pen)+IP-(*Dap)-OH; also: C-terminal Dap joined through its 3-amino group) [((N-Me)G)-IC+SRSLP-(Oic)-I-(Pen)+IP-(*Dap)-OH]	6.6	55
[Sar]ICSRSLP[Oic]I[Pen]IPD[Ahx]-OH (disulfide 3-11; N-terminus assumed; SMILES CC[C@H](C)[C@H](NC(=O)CNC)C(=O)N[C@H]1CSSC(C)(C)[C@@H](C(=O)N[C@H](C(=O)N2CCC[C@H]2C(=O)N[C@@H](CC(=O)O)C(=O)NCCCCCC(=O)O)[C@@H](C)CC)NC(=O)[C@H]([C@@H](C)CC)NC(=O)[C@@H]2C[C@@H]3CCCC[C@@H]3N2C(=O)[C@@H]2CCCN2C(=O)[C@H](CC(C)C)NC(=O)[C@H](CO)NC(=O)[C@H](CCCNC(=N)N)NC(=O)[C@H](CO)NC1=O) [((N-Me)G)-IC+SRSLP-(Oic)-I-(Pen)+IPD-(Ahx)-OH]	0.41	120
[Sar]ICSRSLP[Oic]I[Pen]IP[PEG6]-OH (disulfide 3-11; N-terminus assumed; SMILES CC[C@H](C)[C@H](NC(=O)CNC)C(=O)N[C@H]1CSSC(C)(C)[C@@H](C(=O)N[C@H](C(=O)N2CCC[C@H]2C(=O)NCCOCCOCCOCCOCCOCCOCCC(=O)O)[C@@H](C)CC)NC(=O)[C@H]([C@@H](C)CC)NC(=O)[C@@H]2C[C@@H]3CCCC[C@@H]3N2C(=O)[C@@H]2CCCN2C(=O)[C@H](CC(C)C)NC(=O)[C@H](CO)NC(=O)[C@H](CCCNC(=N)N)NC(=O)[C@H](CO)NC1=O) [((N-Me)G)-IC+SRSLP-(Oic)-I-(Pen)+IP-(PEG5(22 atoms))-OH]	4	51
[Sar]ICSRSLP[Oic]I[Pen]IP[PEG3]-OH (disulfide 3-11; N-terminus assumed; SMILES CC[C@H](C)[C@H](NC(=O)CNC)C(=O)N[C@H]1CSSC(C)(C)[C@@H](C(=O)N[C@H](C(=O)N2CCC[C@H]2C(=O)NCCOCCOCCOCCC(=O)O)[C@@H](C)CC)NC(=O)[C@H]([C@@H](C)CC)NC(=O)[C@@H]2C[C@@H]3CCCC[C@@H]3N2C(=O)[C@@H]2CCCN2C(=O)[C@H](CC(C)C)NC(=O)[C@H](CO)NC(=O)[C@H](CCCNC(=N)N)NC(=O)[C@H](CO)NC1=O) [((N-Me)G)-IC+SRSLP-(Oic)-I-(Pen)+IP-(PEG2(13 atoms))-OH]	4.5	97
[Sar]ICSRSLP[Oic]I[Pen]IP[PEG4‑CH2CO2H (15 atoms)]-OH (disulfide 3-11) [((N-Me)G)-IC+SRSLP-(Oic)-I-(Pen)+IP-(PEG4-CH2CO2H (15 atoms))-OH]	1.8	58
[Sar]ICSRSLP[Oic]I[Pen]I[(S)‑4‑Piperazine‑2‑carboxylic acid]-OH (disulfide 3-11) [((N-Me))-GIC+SRSLP-(Oic)-I-(Pen)+I-((S)-4-Piperazine-2-carboxylic acid)-OH]	2.4	78
[Orn]ICSRSLP[Oic]I[Pen]IPD-OH (disulfide 3-11; N-terminus assumed; SMILES CC[C@H](C)[C@H](NC(=O)[C@@H](N)CCCN)C(=O)N[C@H]1CSSC(C)(C)[C@@H](C(=O)N[C@H](C(=O)N2CCC[C@H]2C(=O)N[C@@H](CC(=O)O)C(=O)O)[C@@H](C)CC)NC(=O)[C@H]([C@@H](C)CC)NC(=O)[C@@H]2C[C@@H]3CCCC[C@@H]3N2C(=O)[C@@H]2CCCN2C(=O)[C@H](CC(C)C)NC(=O)[C@H](CO)NC(=O)[C@H](CCCNC(=N)N)NC(=O)[C@H](CO)NC1=O) [(Orn)-IC+SRSLP-(Oic)-I-(Pen)+IPD-OH]	1.9	110
[Sar]ICSRSLP[Oic]I[Pen]IPDK-OH (disulfide 3-11; N-terminus assumed; SMILES CC[C@H](C)[C@H](NC(=O)CNC)C(=O)N[C@H]1CSSC(C)(C)[C@@H](C(=O)N[C@H](C(=O)N2CCC[C@H]2C(=O)N[C@@H](CC(=O)O)C(=O)N[C@@H](CCCCN)C(=O)O)[C@@H](C)CC)NC(=O)[C@H]([C@@H](C)CC)NC(=O)[C@@H]2C[C@@H]3CCCC[C@@H]3N2C(=O)[C@@H]2CCCN2C(=O)[C@H](CC(C)C)NC(=O)[C@H](CO)NC(=O)[C@H](CCCNC(=N)N)NC(=O)[C@H](CO)NC1=O) [((N-Me)G)-IC+SRSLP-(Oic)-I-(Pen)+IPDK-OH]	3.8	260
[Nip(3R)]ICSRSLP[Oic]I[Pen]I-OH (disulfide 3-11; N-terminus assumed; SMILES CC[C@H](C)[C@H](NC(=O)[C@H]1NC(=O)[C@H]([C@@H](C)CC)NC(=O)[C@@H]2C[C@@H]3CCCC[C@@H]3N2C(=O)[C@@H]2CCCN2C(=O)[C@H](CC(C)C)NC(=O)[C@H](CO)NC(=O)[C@H](CCCNC(=N)N)NC(=O)[C@H](CO)NC(=O)[C@@H](NC(=O)[C@@H](NC(=O)[C@@H]2CCCNC2)[C@@H](C)CC)CSSC1(C)C)C(=O)O) [((R)-Piperidine-3-carboxylic acid)-IC+SRSLP-(Oic)-I-(Pen)+I-OH]	4.3	200
[Sar]ICSRSLP[Oic]I[Pen]IPGD-OH (disulfide 3-11; N-terminus assumed; SMILES CC[C@H](C)[C@H](NC(=O)CNC)C(=O)N[C@H]1CSSC(C)(C)[C@@H](C(=O)N[C@H](C(=O)N2CCC[C@H]2C(=O)NCC(=O)N[C@@H](CC(=O)O)C(=O)O)[C@@H](C)CC)NC(=O)[C@H]([C@@H](C)CC)NC(=O)[C@@H]2C[C@@H]3CCCC[C@@H]3N2C(=O)[C@@H]2CCCN2C(=O)[C@H](CC(C)C)NC(=O)[C@H](CO)NC(=O)[C@H](CCCNC(=N)N)NC(=O)[C@H](CO)NC1=O) [((N-Me)G)-IC+SRSLP-(Oic)-I-(Pen)+IPGD-OH]	1	45
[Sar]ICSRSLP[Oic]I[Pen]IPDD-OH (disulfide 3-11; N-terminus assumed; SMILES CC[C@H](C)[C@H](NC(=O)CNC)C(=O)N[C@H]1CSSC(C)(C)[C@@H](C(=O)N[C@H](C(=O)N2CCC[C@H]2C(=O)N[C@@H](CC(=O)O)C(=O)N[C@@H](CC(=O)O)C(=O)O)[C@@H](C)CC)NC(=O)[C@H]([C@@H](C)CC)NC(=O)[C@@H]2C[C@@H]3CCCC[C@@H]3N2C(=O)[C@@H]2CCCN2C(=O)[C@H](CC(C)C)NC(=O)[C@H](CO)NC(=O)[C@H](CCCNC(=N)N)NC(=O)[C@H](CO)NC1=O) [((N-Me)G)-IC+SRSLP-(Oic)-I-(Pen)+IPDD-OH]	0.72	40
